These results are taken from paper PMC4837377 (Scientific Reports, 2016).

Sequences and labels used below:
B1: RanBP5 (residues 1-1115) co-expressed in the PA-PB1(1-686)-RanBP5 polyprotein (construct 21) (natural protein)
chain: MPEDQVGKLEATENTISAMAAAAAEQQQFYLLLGNLLSPDNVVRKQAEETYENIPGQSKITFLLQAIRNTTAAEEARQMAAVLLRRLLSSAFDEVYPALPSDVQTAIKSELLMIIQMETQSSMRKKVCDIAAELARNLIDEDGNNQWPEGLKFLFDSVSSQNVGLREAALHIFWNFPGIFGNQQQHYLDVIKRMLVQCMQDQEHPSIRTLSARATAAFILANEHNVALFKHFADLLPGFLQAVNDSCYQNDDSVLKSLVEIADTVPKYLRPHLEATLQLSLKLCGDTSLNNMQRQLALEVIVTLSETAAAMLRKHTNIVAQTIPQMLAMMVDLEEDEDWANADELEDDDFDSNAVAGESALDRMACGLGGKLVLPMIKEHIMQMLQNPDWKYRHAGLMALSAIGEGCHQQMEGILNEIVNFVLLFLQDPHPRVRYAACNAVGQMATDFAPGFQKKFHEKVIAALLQTMEDQGNQRVQAHAAAALINFTEDCPKSLLIPYLDNLVKHLHSIMVLKLQELIQKGTKLVLEQVVTSIASVADTAEEKFVPYYDLFMPSLKHIVENAVQKELRLLRGKTIECISLIGLAVGKEKFMQDASDVMQLLLKTQTDFNDMEDDDPQISYMISAWARMCKILGKEFQQYLPVVMGPLMKTASIKPEVALLDTQDMENMSDDDGWEFVNLGDQQSFGIKTAGLEEKSTACQMLVCYAKELKEGFVEYTEQVVKLMVPLLKFYFHDGVRVAAAESMPLLLECARVRGPEYLTQMWHFMCDALIKAIGTEPDSDVLSEIMHSFAKCIEVMGDGCLNNEHFEELGGILKAKLEEHFKNQELRQVKRQDEDYDEQVEESLQDEDDNDVYILTKVSDILHSIFSSYKEKVLPWFEQLLPLIVNLICPHRPWPDRQWGLCIFDDVIEHCSPASFKYAEYFLRPMLQYVCDNSPEVRQAAAYGLGVMAQYGGDNYRPFCTEALPLLVRVIQSADSKTKENVNATENCISAVGKIMKFKPDCVNVEEVLPHWLSWLPLHEDKEEAVQTFNYLCDLIESNHPIVLGPNNTNLPKIFSIIAEGEMHEAIKHEDPCAKRLANVVRQVQTSGGLWTECIAQLSPEQQAAIQELLNSA
B2: PA-PB1(1-686) heterodimer (construct 1) (complex)
chain 1: […]
chain 2: MDVNPTLLFLKVPAQNAISTTFPYTGDPPYSHGTGTGYTMDTVNRTHQYSEKGKWTTNTETGAAQLNPIDGPLPEDNEPSGYAQTDCVLEAMAFLEESHPGIFENSCLETMEVVQQTRVDRLTQGRQTYDWTLNRNQPAATALANTIEVFRSNGLIANESGRLIDFLKDVIESMDKEEMEITTHFQRKRRVRDNMTKKMVTQRTIGKKKQRVNKRSYLIRALTLNTMTKDAERGKLKRRAIATPGMQIRGFVYFVETLARSICEKLEQSGLPVGGNEKKAKLANVVRKMMTNSQDTELSFTITGDNTKWNENQNPRMFLAMITYITKNQPEWFRNILSIAPIMFSNKMARLGKGYMFESKRMKLRTQIPAEMLASIDLKYFNESTRKKIEKIRPLLIDGTASLSPGMMMGMFNMLSTVLGVSILNLGQKKYTKTTYWWDGLQSSDDFALIVNAPNHEGIQAGVDRFYRTCKLVGINMSKKKSYINRTGTFEFTSFFYRYGFVANFSMELPSFGVSGINESADMSIGVTVIKNNMINNDLGPATAQMALQLFIKDYRYTYRCHRGDTQIQTRRSFELKKLWEQTRSKAGLLVSDGGPNLYNIRNLHIPEVCLKWELMDEDYQGRLCNPLNPFVSHKEIESVNNAVVMPAHGPAKSMEYDAVATTHSWIPKRNRSILNTSQRGILEDE

Experiment [1] has as its target B2. The experiment in a line: SEC-SAXS. To be noted: both partners purified. (In general: SEC sorts molecules by how far they enter the pores of the column.)
Experiment [2] has as its target B1. The experiment in a line: co-purification (nickel resin, heparin, SEC). To be noted: partners not purified.

B1: the stoichiometry N (as a rule, a count of units in the complex or per binding partner) in experiment [1] came to 1.

As for B2, the binding result in experiment [2] is on record as “binds”.
